The values that follow come from patent US20170100490A1, “Prodrug Comprising a Drug Linker Conjugate” (Ascendis Pharma A/S, priority 2008, published 2017).

For series [1] the following is noted: human, in vivo; cited from earlier work.
Series [2] is described as follows: physchem. The settings on record: buffer A (phosphate buffer), pH 7.4.
Description: In vitro linker hydrolysis and release of drug: Compounds were dissolved in buffer A (10 mM sodium phosphate, 140 mM NaCl, pH 7.4, 3 mM EDTA) or buffer B (0.1 M Acetat 3 mM EDTA, pH 4.0), and solution was filtered through a 0.2 μm filter and incubated at 37° C. Samples were taken at time intervals and analyzed by RP-HPLC at 215 nm and ESI-MS. UV-signals correlating to liberated drug molecule were integrated and plotted against incubation time. In case of identical retention times of prodrug and drug, ratio of mass signals was used to determine release kinetics.
For hydrogel conjugates, compounds were suspended in buffer A and incubated at 37° C. Samples were taken after centrifugation of the suspension and analyzed by RP-HPLC at 215 nm. UV-signals correlating to liberated drug molecule were integrated and plotted against incubation time.
Curve-fitting software was applied to estimate the corresponding halftime of release.

In the case of “Exendin-4: GLP-1 receptor agonist peptide; high potency agonist at the glucagon-like peptide 1-(7-36)-amide receptor”, in series [1], the Plasma half-life was 0.433 h. For the molecule `CCCCCCCCCCCC(=O)NC(CCCCNC(=O)CCOCCOCCOCCOCCOCCOCCOCCOCCOCCOCCOCCOCCNC(=O)CCN1C(=O)CC(SCCNC(=O)CN2CCN(CCNC(=O)[C@@H]3CCCC[C@@H]3C(=O)N3CCN(C4=Nc5ccccc5Oc5ccc(Cl)cc54)CC3)CC2)C1=O)C(N)=O` (some centres unmarked) [Compound 5], in series [2], the half-life – broadly, the time in which the quantity being followed falls by half – was 22 h.
